Reference: publication PMC7515635 (2020)

B1: GST-ATG8A (natural protein)
chain: MAKSSFKISNPLEARMSESSRIREKYPDRIPVIVEKAGQSDVPDIDKKKYLVPADLTVGQFVYVVRKRIKLGAEKAIFVFVKNTLPPTAALMSAIYEEHKDEDGFLYMTYSGENTFG
B2: GST-GABARAP (natural protein)
chain: MKFVYKEEHPFEKRRSEGEKIRKKYPDRVPVIVEKAPKARIGDLDKKKYLVPSDLTVGQFYFLIRKRIHLRAEDALFFFVNNVIPPTSATMGQLYQEHHEEDFFLYIAYSDESVYGL
B3: HIS6-AtC53 (natural protein)
chain: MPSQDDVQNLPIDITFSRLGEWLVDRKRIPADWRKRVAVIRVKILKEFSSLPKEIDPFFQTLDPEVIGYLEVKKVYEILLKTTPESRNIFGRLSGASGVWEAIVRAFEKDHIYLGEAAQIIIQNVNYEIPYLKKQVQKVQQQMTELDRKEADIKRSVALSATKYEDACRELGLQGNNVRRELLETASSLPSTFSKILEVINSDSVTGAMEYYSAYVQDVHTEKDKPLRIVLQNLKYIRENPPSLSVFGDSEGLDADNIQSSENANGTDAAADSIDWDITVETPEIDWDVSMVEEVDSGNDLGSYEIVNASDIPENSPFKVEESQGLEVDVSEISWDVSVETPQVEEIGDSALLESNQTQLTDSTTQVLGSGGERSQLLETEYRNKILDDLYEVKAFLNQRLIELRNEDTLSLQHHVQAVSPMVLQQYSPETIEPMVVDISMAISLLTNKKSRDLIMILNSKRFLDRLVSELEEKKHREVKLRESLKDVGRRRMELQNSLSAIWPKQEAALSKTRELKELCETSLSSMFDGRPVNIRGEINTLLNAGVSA

Assays:
AIM wt peptide = assay: SPR
GST-ATG8A = target: B1; assay: SPR; derived from AIM wt peptide competition

Row | Binder | Kd (AIM wt peptide) | Kd (GST-ATG8A)
1 | B1 | 5.88 µM | 
2 | B2 | 1.64 µM | 
3 | B3 |  | ~1390 nM
